# Key:
# [1] = biological target: T1, human Ab42 species in protein extracts of GMC101 C. elegans worms (human); assay: indirect ELISA on C. elegans protein extracts, N2 worms as reference
# T1 construct: Target present in crude worm protein extracts coated on ELISA wells; also called NIAD-4 negative, toxic Ab42 species; Ab42 oligomers formed in vivo
# [2] = biological target: T2, Zn2+-stabilised Ab40 oligomers (UniProt P05067 672-711); assay: ITC, fit of double subtracted integrated peaks
# T2 construct: domain: Ab1-40; Oligomers made by incubating Ab40 with ZnCl2 for 20 hours at 20 C
# T2 sequence (P05067 671-711 limits assumed): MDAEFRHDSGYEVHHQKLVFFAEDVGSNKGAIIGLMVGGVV
# [3] = biological target: T2, Zn2+-stabilised Ab40 oligomers; assay: ITC, DesAb-O injected into Ab40 oligomers, 25 C
# [4] = biological target: T3, Ab42 species in hippocampus protein extracts of J20 mice (PDGF-APPSw,Ind) (human); assay: indirect ELISA on hippocampus protein extracts of J20 mice, normalised to wild-type mice
# T3 construct: Target present in crude hippocampus extracts coated on ELISA wells; 6E10 detects total Ab in the same extracts; also called Ab42 oligomers formed in vivo in a mouse model of AD
# T3 sequence (peptide, as listed by the source): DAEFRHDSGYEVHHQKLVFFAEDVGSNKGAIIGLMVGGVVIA
# T1 sequence (peptide, as listed by the source): as above
binder,measurement,setting,value
"DesAb-O (VHH, Rationally designed single-domain antibody (VH domain), expressed in E. coli, purified by Ni2+ chromatography and detected with an anti-6X His tag antibody; also called DesAb-0; Des-Ab-0) VHH: EVQLVESGGGLVQPGGSLRLSCAASGFNIKDTYIGWVRRAPGKGEEWVASIYPTNGYTRYADSVKGRFTISADTSKNTAYLQMNSLRAEDTAVYYCAAGSESAFGRAEEEAAAWGQGTLVTVSS",binding result,[1],binds
same,DH (ITC fit),[2],-12.7 kcal/mol
same,Kd,[2],440 nM
same,Kd,[3],~500 nM
same,binding result,[4],binds
